According to patent publication US20220204630A1 (SUNSHINE LAKE PHARMA, published 2022):
Positions count from the first letter of the chain named.

B1: 1B9 chimeric antibody (antibody, human IgG4 S228P, kappa, F234A L235A, V domains shown)
VH: QVHLQQSGAELMKPGASVKISCKATGYTFNIYWIDWVKQRPGHGLEWIGEILPGSGNTHYNENFKGKATMTADTSSNTAYMQLTSLTSEDSAVYYCARTDGRGYFDYWGQGTTLTVSS
VL: DIVLTQSPASLVVSLGQRATISCRTSKSVSSSAYSYMHWYQQKPGQPPKVLIYLASNLESGVPARFSGSGSGTDFTLNIHPVEEEDAATYYCQHSRELPFTFGSGTKLEIKR
notes: expressed in CHO cells
B2: 2008 chimeric antibody (antibody, human IgG4 S228P, kappa, F234A L235A, V domains shown)
VH: EVLLQQSGPELVKPGASMKISCKASVYSFTAYTMNWVKQSHGKNLEWIGLINPHNGGTRYNQKFKGKATLTLDKSSSTAYMDLLSLTSEDSAVYYCAISRYGSSSFYFDVWGAGTTVAVSS
VL: QIVLSQSPAILSASPGEKVTMTCRASSSISYMHWYQQKPGSSPKPWISATSNLASGVPARFSGSGSGTSYSLTISGVEAEDAATYYCQQWSSNPPTFGGGTNLEIKR
notes: also called 20C8
B3: 4H4 chimeric antibody (antibody, human IgG4 S228P, kappa, F234A L235A, V domains shown)
VH: EVQLQQSGPELVKPGASMKISCKASGYSFTGYTMNWVKQSHGKNLEWIGLINPYNGGTRYNQKFKGKATLTVDKSSSTAYMELLSLTSEDSAVYYCASSSYRNDGNWYFDVWGAGTTVTVSS
VL: DIVMTQSPAIMSASPGEKVTMTCSASSSVSYMHWYQQKSGTSPKRWIYDTSKLASGVPARFSGSGSGTSYSLTISSMETEDAATYYCQQWSSNPPTFGGGTKLELKR
notes: expressed in CHO cells
B4: MNAC13 (anti-TrKA monoclonal antibody, positive control) (antibody, human IgG4 S228P, kappa, F234A L235A, V domains shown)
VH: EVQLLESGGGLVQPGGSLRLSCAASGFTFSTYTMSWARQAPGKGLEWVAYISKGGGSTYYPDTVKGRFTISRDNSKNTLYLQMNSLRAEDSAVYYCARGAMFGNDFFFPMDRWGQGTLVTVSS
VL: DIVLTQSPSSLSASVGDRVTITCSASSSVSYMHWYQQKPGQAPKLLIYTTSNLASGVPSRFSGSGSGTDYTLTISSLQPEDVATYYCHQWSSYPWTFGGGTKVEIKR
B5: 2A5 chimeric antibody (antibody, human IgG4 S228P, kappa, F234A L235A, V domains shown)
VH: EVQLQQSGPELVKPGASMKISCKASGYSFTGYTMNWVKQSHGKNLEWIGLINPYNGGTNYNQKFKGKATLTVDKSSSTAYMELLSLTSEDSAVYYCAFSYYGSRGFYFDYWGQGTTLTVSS
VL: QIVLTQSPALMSASPGEKVTMTCSATSSVSYIYWYQQKPRSSPKPWIYLTSNLASGVPARFSGSGSGTSYSLTISSMEAEDAATYYCQQWSSNPPTFGGGTKLEIKR
notes: expressed in CHO cells
B6: mouse monoclonal antibody produced by hybridoma clone 23E12 (antibody, V domains shown)
VH: QVQLQQSGAELVRPGTSVKISCKASGYAFTNYWLGWMKQRPGHGLEWIGDFYPRTGNTFYNENFKGKVTLTADKSSNTAYMQLSSLTSEDSAVYLCARAGTGFDYWGQGTTLTVSS
VL: SIVMTQSPKSMSMSVGERVTLSCKASENVGGYVSWYQQKPDQSPKLLIYGASSRHTGVPDRFTGSGSETDFTLTISSVQAEDLAAYHCGQNYIYPFTFGGGTKLEIK
notes: also called 23E12 (positive clone supernatant)
B7: mouse monoclonal antibody produced by hybridoma clone 21E5 (antibody, V domains shown)
VH: QVQLQQSGAELMKPGASMKISCKATGYTFSTYWIEWVKQRPGHGLEWIGENLPGRHITNYNEKFKGKATFTADTSSNTAYMQLSSLTSEDSAVYYCARGRGTYYFDYWGQGTPLTVSS
VL: DIVMTQAAFSTPVTLGTSASISCRSSQSLLHSNGITYLYWYLQKPGQSPQLLIYQMSNLASGVPDRFSSSGSGTDFTLRISRVEAEDVGVYYCAQNLEFPFTFGSGTKLEIK
notes: also called 21E5 (positive clone supernatant)
B8: mouse monoclonal antibody produced by hybridoma clone 15D4 (antibody, V domains shown)
VH: QVQLQQSGAELMKPGASVKISCKATGYTFSSYWIEWVKQRPGHGLEWLGEFLPRSGKTNYNEEFRGKATFTADTSSNTAYMQLSSLTSEDSAVYYCARTDPPYFGVWGAGTMVAVSS
VL: QIVLTQSPPIMSASPGEKVTMTCSASSNISYMHWYQQKSGTSPKRWIYDTSKLASGVPARFSGSGSGTSYSLTISSMEAEDAATYYCQQWSSVPLTFGAGTKLEIK
notes: also called 15D4 (positive clone supernatant)
B9: mouse monoclonal antibody produced by hybridoma clone 27H3 (antibody, V domains shown)
VH: QVQLQQSGAELMKPGASVKISCKTTGYRFSSYWIEWVKQRPGHGLEWLGEILPGRGIINYNENFRGKATFTADTSSNTAYVQLSSLTSEDSAVYFCARTDPPYFGVWGAGTTVTVSS
VL: QAVVTQESALTTSPGETVTLTCRSSTGAVTISNYANWVQEKPDHLFTGLIGGTNNRPPGVPARFSGSLIGDKAALTITGAQTEDEAIYFCVLWYSNHWVFGGGTKLTVL
notes: also called 27H3 (positive clone supernatant)
B10: mouse monoclonal antibody produced by hybridoma clone 2008 (antibody, V domains shown)
VH: B2 VH
VL: QIVLSQSPAILSASPGEKVTMTCRASSSISYMHWYQQKPGSSPKPWISATSNLASGVPARFSGSGSGTSYSLTISGVEAEDAATYYCQQWSSNPPTFGGGTNLEIK
B11: mouse monoclonal antibody produced by hybridoma clone 1B9 (antibody, V domains shown)
VH: B1 VH
VL: DIVLTQSPASLVVSLGQRATISCRTSKSVSSSAYSYMHWYQQKPGQPPKVLIYLASNLESGVPARFSGSGSGTDFTLNIHPVEEEDAATYYCQHSRELPFTFGSGTKLEIK
notes: also called 1B9 (positive clone supernatant)
B12: mouse monoclonal antibody produced by hybridoma clone 4H4 (antibody, V domains shown)
VH: B3 VH
VL: B8 VL with Q1D, L4M, P9A, N28S, I29V, A79T, V93N, L95P, A99G, I105L
notes: also called 4H4 (positive clone supernatant)
B13: mouse monoclonal antibody produced by hybridoma clone 2A5 (antibody, V domains shown)
VH: B5 VH
VL: QIVLTQSPALMSASPGEKVTMTCSATSSVSYIYWYQQKPRSSPKPWIYLTSNLASGVPARFSGSGSGTSYSLTISSMEAEDAATYYCQQWSSNPPTFGGGTKLEIK
notes: also called 2A5 (positive clone supernatant)
B14: mouse monoclonal antibody produced by hybridoma clone 22D12 (antibody, V domains shown)
VH: EVQLQQSGPELVKPGASMKISCKASGYSITGYTMNWVKQSHGKNLEWIGLVNPYNGGTSYNQKFKGKATLTVDKSSSTAYMELLSLKSEDSAVYYCAISRYGSESWYFDVWGAGTTVTVSS
VL: B10 VL with S26T, I29V, H33Y, S48Y, G76R, N102K, I105K
notes: also called 22D12 (positive clone supernatant)

biological target: T1, TrkA protein on HEK-293T-TrkA cells or NIH-3T3-TrkA cells (human, UniProt P04629 33-796); assay: cell-based or functional assay
T1 sequence (P04629 33-796): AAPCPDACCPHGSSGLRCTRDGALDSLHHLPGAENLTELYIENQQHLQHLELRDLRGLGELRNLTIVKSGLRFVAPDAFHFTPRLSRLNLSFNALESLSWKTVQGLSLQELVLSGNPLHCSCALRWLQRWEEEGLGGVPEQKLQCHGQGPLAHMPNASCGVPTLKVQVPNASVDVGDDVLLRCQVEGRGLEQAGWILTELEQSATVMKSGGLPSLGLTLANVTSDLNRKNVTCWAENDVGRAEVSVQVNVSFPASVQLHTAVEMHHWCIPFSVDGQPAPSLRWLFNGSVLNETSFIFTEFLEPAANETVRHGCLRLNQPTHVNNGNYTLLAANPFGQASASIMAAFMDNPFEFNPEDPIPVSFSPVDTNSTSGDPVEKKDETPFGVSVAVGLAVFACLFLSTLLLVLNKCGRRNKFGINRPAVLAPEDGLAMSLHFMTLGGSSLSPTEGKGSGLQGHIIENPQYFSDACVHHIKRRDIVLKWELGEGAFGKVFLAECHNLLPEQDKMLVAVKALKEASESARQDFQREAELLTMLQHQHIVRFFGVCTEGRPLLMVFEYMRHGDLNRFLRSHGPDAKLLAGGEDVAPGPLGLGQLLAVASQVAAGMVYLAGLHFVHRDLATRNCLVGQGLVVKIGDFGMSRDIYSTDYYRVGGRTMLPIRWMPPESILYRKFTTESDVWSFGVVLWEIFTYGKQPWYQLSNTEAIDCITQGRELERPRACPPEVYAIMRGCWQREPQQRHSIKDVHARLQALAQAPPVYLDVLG

| Binder | IC50; p-TrkA level by AlphaLISA in NGF-stimulated NIH3T3-TrkA stable cell line [µg/mL] |
| --- | --- |
| B1 | 0.0473 |
| B2 | 0.11 |
| B3 | 0.129 |
| B4 | 0.16 |

biological target: T1, TrkA protein on HEK-293T-TrkA cells or …; assay: flow cytometry on HEK-293T-TrKA cells
Excerpt: (§1) In FIG. 7, the EC₅₀ (half-binding concentration) value reflects the affinity of the antibody. The smaller the EC₅₀ value, the higher the affinity of the antibody.

| Binder | EC50 [µg/mL] |
| --- | --- |
| B1 | < 1.5 |
| B2 | < 1.5 |
| B3 | < 1.5 |
| B5 | < 1.5 |

biological target: T2, Mouse-TrKA protein (mouse, UniProt Q3UFB7 34-420, limits assumed); assay: ELISA, hybridoma supernatant on Mouse-TrKA
T2 construct: also called Mouse-TrKA receptor
Excerpt: The binding of monoclonal antibodies produced by the supernatant of each positive clone to the Mouse-TrKA receptor was detected by ELISA method, and the human-mouse cross reaction of positive clones producing monoclonal antibodies was detected. In FIG. 3, the OD₄₅₀ value reflects the strength of the binding of the antibody to the protein. The larger the reading, the stronger the binding of the antibody to the protein. […] It can be seen that clones 23E12, 21E5, 15D4, and 27H3 can produce monoclonal antibodies that bind to both Human-TrKA and Mouse-TrKA, and there is a human-mouse cross reaction.

T2 sequence (Q3UFB7 34-420 limits assumed): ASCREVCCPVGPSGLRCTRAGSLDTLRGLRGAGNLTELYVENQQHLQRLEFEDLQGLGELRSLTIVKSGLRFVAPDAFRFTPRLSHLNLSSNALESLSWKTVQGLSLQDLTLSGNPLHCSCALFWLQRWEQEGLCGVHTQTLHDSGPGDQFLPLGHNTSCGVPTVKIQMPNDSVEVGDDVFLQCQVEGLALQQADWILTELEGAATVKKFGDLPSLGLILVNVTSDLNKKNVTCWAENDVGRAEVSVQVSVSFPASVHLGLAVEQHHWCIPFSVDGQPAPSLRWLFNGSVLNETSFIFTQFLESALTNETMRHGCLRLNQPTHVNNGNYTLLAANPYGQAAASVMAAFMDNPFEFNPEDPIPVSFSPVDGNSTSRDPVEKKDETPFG

| Binder | OD450 [OD450] | binding result |
| --- | --- | --- |
| B6 | ~3.5 |  |
| B7 | ~3.5 |  |
| B8 | ~3.5 |  |
| B9 | ~3.5 |  |
| B10 |  | no binding |
| B11 |  | no binding |
| B12 |  | no binding |
| B13 |  | no binding |
| B14 |  | no binding |

biological target: T3, TrKA receptor protein coated in ELISA (Examples 11 and 16) (human, UniProt P04629 33-423, limits assumed); assay: competition ELISA: antibody titrated against biotinylated NGF binding to TrkA, OD450
T3 construct: also called Human-TrKA
T3 sequence (P04629 33-423 limits assumed): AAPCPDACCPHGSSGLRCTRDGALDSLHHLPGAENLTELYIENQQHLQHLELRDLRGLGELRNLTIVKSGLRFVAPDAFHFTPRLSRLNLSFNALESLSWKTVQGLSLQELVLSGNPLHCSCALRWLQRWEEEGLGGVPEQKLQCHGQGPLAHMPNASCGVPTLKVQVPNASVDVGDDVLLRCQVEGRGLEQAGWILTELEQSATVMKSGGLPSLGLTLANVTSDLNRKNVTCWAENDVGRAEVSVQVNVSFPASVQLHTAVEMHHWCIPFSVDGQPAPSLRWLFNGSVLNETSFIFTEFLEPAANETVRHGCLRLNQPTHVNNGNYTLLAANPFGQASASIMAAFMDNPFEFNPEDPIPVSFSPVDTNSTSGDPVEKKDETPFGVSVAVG

| Binder | IC50 [µg/mL] |
| --- | --- |
| B2 | 0.31 |
| B3 | 0.551 |
| B5 | 1.06 |

biological target: T4, TRKA protein with a histidine tag (human, UniProt P04629 33-423, limits assumed); assay: BLI (Fortebio Octet RED96), His-tagged TRKA on Ni-NTA sensor, antibody 80-2.93 nM
T4 construct: it is put last here only for order; also called TRKA (50 µg/ml, 75 kDa, provided by HEC Labs); not shown: histidine tag
Method: They were added to each well of the sample plate. […] The KD value is the equilibrium dissociation constant between the antibody and its antigen, and the KD value is inversely proportional to the affinity. The KD value is related to the antibody concentration (the amount of antibody required for a particular experiment). The lower the KD value (the lower the concentration), the higher the affinity of the antibody. High-affinity antibodies are generally considered to be in the low nanomolar range (10⁻⁹).

T4 sequence (P04629 33-423 limits assumed): as above

| Binder | Kd [nM] | koff [s⁻¹] | kon [M⁻¹ s⁻¹] |
| --- | --- | --- | --- |
| B1 | 0.899 | 0.000904 | 1.01e+06 |
| B2 | 0.115 | 6.33e-05 | 551000 |
| B3 | 1.68 | 0.000234 | 139000 |
| B5 | 0.0162 | 3.6e-06 | 222000 |

biological target: T1, TrkA protein on HEK-293T-TrkA cells or …; assay: flow cytometry competition: antibody titrated against biotinylated NGF binding to HEK-293T-TrkA cells, % parent

| Binder | IC50 [µg/mL] |
| --- | --- |
| B1 | 0.334 |
| B2 | 0.822 |
| B3 | 2.04 |
| B5 | 4.8 |

biological target: T3, TrKA receptor protein coated in ELISA …; assay: ELISA plateau, antibody up to 20 µg/mL on TrKA
Method: The TrkA receptor family belongs to receptor tyrosine kinases (RTKs), including TrkA, TrkB, and TrkC, which have high homology. TrkA is a receptor tyrosine kinase of nerve growth factor (NGF) that selectively binds to NGF and is a functional receptor for NGF. In addition to the high-affinity receptor TrkA, NGF can also bind to its low-affinity receptor p75. In the test, the binding of test antibodies at different concentrations (20 μg/mL, 10 μg/mL, 5 μg/mL, 2.5 μg/mL, 1.25 μg/mL, 0.625 μg/mL, 0.313 μg/mL, 0.156 μg/mL, 0.078 μg/mL, 0.039 μg/mL, 0.019 μg/mL) to TrKA, TrKB, TrKC, and P75 respectively was detected by the ELISA method, and the specificity of the test antibody binding to the target TrKA was evaluated. In the FIG. 8, at a certain antibody concentration, the OD₄₅₀ value reflects the binding strength of the antibody to the protein. The larger the reading, the stronger the binding of the antibody to the protein. […] It can be seen that the specificity of the binding of the test antibodies to the target TrKA is very good.

| Binder | OD450 [OD450] |
| --- | --- |
| B1 | ~3 |
| B2 | ~3 |
| B3 | ~3 |
| B5 | ~3 |

biological target: T1, TrkA protein on HEK-293T-TrkA cells or …; assay: flow cytometry, antibody titrated on HEK-293T-TrKA cells, Parent %
Excerpt: as §1

| Binder | EC50 [µg/mL] |
| --- | --- |
| B1 | 0.0372 |
| B2 | 0.136 |
| B3 | 0.211 |
| B5 | 0.312 |
